From paper PMC8903895 come the findings set out here.

The target of the experiment is dengue virus envelope protein (dengue virus serotype 2 strain New Guinea C). Briefly: proximity ligation.

In turn, “dengue virus capsid protein (natural protein)” yielded a PLA foci per cell (WT cells) (foci per cell) of 11, a PLA foci per cell (YBX1 KO1 cells) (foci per cell) of 5 and a PLA foci per cell (YBX1 KO2 cells) (foci per cell) of 7.
For “dengue virus prM protein (natural protein)”, in that order: 26, 58 and 27.
